What was measured:
[1] = biological target: human serum albumin (human) (UniProt P02768); experiment: SPR, affinity to HSA
[2] = biological target: VEGFR2 as engaged in the VEGF hBa/F3 proliferation assay; experiment: cell-based or functional assay

Chain of human serum albumin (human) (P02768 25-609): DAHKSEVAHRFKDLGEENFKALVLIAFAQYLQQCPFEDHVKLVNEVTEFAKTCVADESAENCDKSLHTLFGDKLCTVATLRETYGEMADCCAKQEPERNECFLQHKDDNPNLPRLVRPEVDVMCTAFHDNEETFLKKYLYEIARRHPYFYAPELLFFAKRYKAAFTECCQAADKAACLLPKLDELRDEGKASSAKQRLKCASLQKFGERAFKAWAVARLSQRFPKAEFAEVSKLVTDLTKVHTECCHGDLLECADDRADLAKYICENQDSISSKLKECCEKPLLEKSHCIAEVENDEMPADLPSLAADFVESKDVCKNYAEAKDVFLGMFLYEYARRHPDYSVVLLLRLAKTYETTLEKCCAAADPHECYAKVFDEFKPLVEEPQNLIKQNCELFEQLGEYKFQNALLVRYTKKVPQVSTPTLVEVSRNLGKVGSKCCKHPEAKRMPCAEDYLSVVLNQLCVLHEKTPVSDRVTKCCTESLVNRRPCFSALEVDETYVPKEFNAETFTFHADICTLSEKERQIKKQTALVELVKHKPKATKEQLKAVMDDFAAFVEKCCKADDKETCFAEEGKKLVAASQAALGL

Row | Substance | Kd [1] | IC50, VEGF hBa/F3 proliferation assay [2] | IC50, VEGF hBa/F3 proliferation assay, with HSA [2] | Rel Pot (C7FL), VEGF hBa/F3 proliferation assay [2] | Rel Pot (C7FL), VEGF hBa/F3 proliferation assay, with HSA [2]
1 | ABD (alone; column 'ABD' of Table 6) | 1.6 to 2.6 nM | – | – | – | –
2 | CT-322 (C7FL lacking the 8 N-terminal amino acids and linked to PEG) (designed binder) | – | 7.53 | 8.85 | 0.62 | 0.53

Source: patent publication US20160152686A1
